Experimental data as given in patent publication US20190016799A1 (HANGZHOU SUMGEN BIOTECHNOLOGY, published 2019).
Like-named read-outs stand apart in the source and are kept apart here.

How the values were obtained:
[1] = molecular target: T1, hPD1-Fc (fusion protein of human PD-1 protein extracellular segment-human IgG1 Fc fragment) (human, UniProt Q15116 25-170); assay: ELISA, plate coated with hPD1-Fc 1 ug/ml, detection with GAH-Fab-HRP, OD450
T1 construct: extracellular domain; Expressed in CHO-K1 cells; also called hPD1-FC-Biotin (biotin-labeled form); not shown: human IgG1 Fc fragment

[2] = molecular target: T1, hPD1-Fc (fusion protein of human PD-1 …); assay: as above; remark: listed apart in the source
monkey PD1 = molecular target: T2, monkey PD1 (monkey); assay: ELISA, plate coated with monkey PD1 1 ug/ml, detection with GAH-Fab-HRP, OD450
T2 construct: Bought protein; also called monkey PD1 protein; monkey PD1 antigen

[3] = molecular target: T1, hPD1-Fc (fusion protein of human PD-1 …); assay: SPR (BIACORE), antibody captured by anti-human IgG-Fab, hPD1-FC as analyte at 3.125-100 nM
Procedure: (§1) The antibody affinity was analyzed using BIACORE Biomacromolecular Interaction Device (GE).

[4] = molecular target: T1, hPD1-Fc (fusion protein of human PD-1 …); assay: blocking ELISA: hPDL1 coated at 1 ug/mL, hPD1-FC-Biotin 5 ug/mL, antibody titrated from 500 ug/mL
Procedure: (§2) The plate was washed 3 times with a washing solution repeatedly, added with HRP-labeled avidin, and placed in the dark at room temperature (20±5° C.) for 45 minutes. The plate was washed 5 times with a washing solution repeatedly, and patted on a drying paper to dry out the residual droplets as possible; added with 100 μl of TMB to each well, and placed in the dark for 3 min at room temperature (20±5° C.); 100 μl of 2N H₂SO₄ stop solution was added to each well to stop the substrate reaction, and the microplate reader was read at 450 nm for the OD value.

BTLA = molecular target: T3, BTLA (UniProt Q7Z6A9 31-157, limits assumed); assay: ELISA, plate coated with BTLA 1 ug/ml, detection with GAH-Fab-HRP, OD450; antibody concentration not shown on the sheet
T3 construct: Bought protein

CD28 = molecular target: T4, CD28 (UniProt P10747 19-152); assay: ELISA, plate coated with CD28 1 ug/ml, detection with GAH-Fab-HRP, OD450; antibody concentration not shown on the sheet
T4 construct: Bought protein

ICOS = molecular target: T5, ICOS (UniProt Q9Y6W8 21-140, limits assumed); assay: ELISA, plate coated with ICOS 1 ug/ml, detection with GAH-Fab-HRP, OD450; antibody concentration not shown on the sheet
T5 construct: Bought protein
T5 sequence (looked up): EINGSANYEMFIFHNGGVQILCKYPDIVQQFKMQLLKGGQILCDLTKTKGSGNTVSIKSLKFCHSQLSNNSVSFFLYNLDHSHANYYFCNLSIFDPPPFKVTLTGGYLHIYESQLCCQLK

CTLA4 = molecular target: T6, CTLA4 (UniProt P16410 36-162); assay: ELISA, plate coated with CTLA4 1 ug/ml, detection with GAH-Fab-HRP, OD450; antibody concentration not shown on the sheet
T6 construct: Bought protein

[5] = molecular target: T1, hPD1-Fc (fusion protein of human PD-1 …); assay: competition ELISA, plate coated with hPD1-FC 1 µg/mL, competitor BMS01-Biotin 0.5 µg/mL, detection with HRP-avidin, OD450
Procedure: as §2

[6] = molecular target: T1, hPD1-Fc (fusion protein of human PD-1 …); assay: SPR (BIACORE), antibody captured by anti-human IgG-Fab on the chip, hPD1-FC as mobile phase at 3.125-100 nM; the text's value is tenfold above Table 1
Procedure: as §1

T1 sequence (Q15116 25-170): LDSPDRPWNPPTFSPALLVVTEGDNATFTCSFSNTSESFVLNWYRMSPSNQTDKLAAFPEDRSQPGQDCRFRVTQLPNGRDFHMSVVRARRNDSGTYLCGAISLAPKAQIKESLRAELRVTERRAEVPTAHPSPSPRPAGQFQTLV
T6 sequence (P16410 36-162 limits assumed): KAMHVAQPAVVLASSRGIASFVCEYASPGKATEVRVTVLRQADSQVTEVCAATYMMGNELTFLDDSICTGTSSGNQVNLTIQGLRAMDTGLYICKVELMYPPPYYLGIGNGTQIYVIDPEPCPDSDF

B1: SG001 antibody (antibody, human IgG1, kappa, V domains shown)
VH: QVQLVESGGGVVQPGRSLRLTCKASGLTFSSSGMHWVRQAPGKGLEWVAVIWYDGSKRYYADSVKGRFTISRDNSKNTLFLQMNSLRAEDTAVYYCATNNDYWGQGTLVTVSS
VL: EIVLTQSPATLSLSPGERATLSCRASQSVSSYLAWYQQKPGQAPRLLIYTASNRATGIPARFSGSGSGTDFTLTISSLEPEDFAVYYCQQYSNWPRTFGQGTKVEIKR
EC50 (read off the curve) [1]: ~0.05 µg/mL | EC50 (read off the curve) [2]: ~0.03 µg/mL | EC50 (read off the curve) (monkey PD1): ~0.03 µg/mL | Kd [3]: 0.215 nM | koff [3]: 6.85e-05 s⁻¹ | kon [3]: 318000 M⁻¹ s⁻¹ | IC50 [4]: 1.47 µg/mL | binding result (BTLA): no binding | binding result (CD28): no binding | binding result (ICOS): no binding | binding result (CTLA4): no binding | IC50 (read off the curve) [5]: ~30 µg/mL | Kd [6]: 0.215 nM
